Tests used:
[1] = target: HEL^3X (hen egg lysozyme R21Q, R73E, D101R), soluble recombinant (hen) (UniProt P00698); experiment: BLI; against WT HyHEL10 on HEL^3X
[2] = target: duck egg lysozyme (DEL), soluble recombinant (duck) (UniProt P00705); experiment: BLI (BLItz), biotinylated Fab on streptavidin biosensor, soluble monomeric DEL, global fit
[3] = target: duck egg lysozyme (DEL), soluble recombinant (duck) (UniProt P00705); experiment: BLI; against WT HyHEL10 on DEL
[4] = target: duck egg lysozyme (DEL), soluble recombinant (duck) (UniProt P00705); experiment: BLI; affinity for DEL against affinity for HEL^3X
[5] = target: HEL^3X (hen egg lysozyme R21Q, R73E, D101R), soluble recombinant (hen) (UniProt P00698); experiment: BLI, Fab on streptavidin sensor
[6] = target: duck egg lysozyme (DEL), soluble recombinant (duck) (UniProt P00705); experiment: BLI, Fab on streptavidin sensor
[7] = target: duck egg lysozyme (DEL), soluble recombinant (duck) (UniProt P00705); experiment: BLI (BLItz), biotinylated Fab on streptavidin biosensor, soluble monomeric DEL 0.03-0.25 µM, global fit
[8] = target: HEL R21Q R73K D101R (self with foreign 73) (hen) (UniProt P00698); experiment: BLI; against I29F Fab on DEL
[9] = target: HEL R21Q R73K L75A D101R (self with foreign 73, 75) (hen) (UniProt P00698); experiment: BLI; against I29F Fab on DEL
[10] = target: HEL R21Q G71R R73K L75A N77G D101R (self with foreign 71, 73, 75, 77) (hen) (UniProt P00698); experiment: BLI; against I29F Fab on DEL
[11] = target: HEL R21Q R73E L75A D101R (self with foreign 75) (hen) (UniProt P00698); experiment: BLI; against I29F Fab on DEL
[12] = target: HEL^3X (hen egg lysozyme R21Q, R73E, D101R), soluble recombinant (hen) (UniProt P00698); experiment: BLI; against I29F Fab on DEL
[13] = target: duck egg lysozyme (DEL), soluble recombinant (duck) (UniProt P00705); experiment: BLI; against I29F Fab on DEL
[14] = target: HEL R21Q R73K D101R (self with foreign 73) (hen) (UniProt P00698); experiment: BLI, Fab on streptavidin sensor
[15] = target: HEL R21Q R73K L75A D101R (self with foreign 73, 75) (hen) (UniProt P00698); experiment: BLI, Fab on streptavidin sensor
[16] = target: HEL R21Q G71R R73K L75A N77G D101R (self with foreign 71, 73, 75, 77) (hen) (UniProt P00698); experiment: BLI, Fab on streptavidin sensor
[17] = target: HEL R21Q R73E L75A D101R (self with foreign 75) (hen) (UniProt P00698); experiment: BLI, Fab on streptavidin sensor
[18] = target: HEL^3X (hen egg lysozyme R21Q, R73E, D101R), soluble recombinant (hen) (UniProt P00698); experiment: BLI (BLItz), biotinylated Fab on streptavidin biosensor, soluble monomeric HEL3X, global fit
[19] = target: HEL^3X (hen egg lysozyme R21Q, R73E, D101R), soluble recombinant (hen) (UniProt P00698); experiment: BLI, highest concentration of HEL^3X tested
[20] = target: HEL^R21Q,R73E,C76S,C94S (HEL^2X-flex) (hen) (UniProt P00698); experiment: BLI (Example 10)
[21] = target: duck egg lysozyme (DEL), soluble recombinant (duck) (UniProt P00705); experiment: BLI (BLItz), biotinylated Fab on streptavidin biosensor, soluble monomeric DEL 0.03-0.5 µM, global fit
[22] = target: HEL^3X (hen egg lysozyme R21Q, R73E, D101R), soluble recombinant (hen) (UniProt P00698); experiment: BLI
[23] = target: duck egg lysozyme (DEL), soluble recombinant (duck) (UniProt P00705); experiment: BLI
[24] = target: duck egg lysozyme (DEL), soluble recombinant (duck) (UniProt P00705); experiment: BLI (BLItz), biotinylated Fab on streptavidin biosensor, soluble monomeric DEL 0.025-0.25 µM, global fit

Fold change [1] [fold]	ΔΔG apparent [1] [kcal/mol]	Ka [2] [M⁻¹]	Kd [2] [nM]	Fold change [3] [fold]	ΔΔG apparent [3] [kcal/mol]	Kd [5] [nM]	Kd [6] [nM]	Substance	further results
-9.6	1.3	6.1e+09	0.16	245	-3.3	807	0.164	HyHEL10 Fab I29F/S52T/Y53F	fold differential binding to foreign (DEL) over self (HEL^3X) [4]: 5000 fold
		1.7e+08	5.8		-1.1		6	HyHEL10 Fab I29F/S52T	
-10.5	1.4			2.6	-0.6	880	15	HyHEL10 Fab I29F	Ka [7]: 6.4e+07 M⁻¹; Kd [7]: 16 nM; Fold change [8]: -22.3 fold; Fold change [9]: -1.8 fold; Fold change [10]: -2 fold; Fold change [11]: -54.5 fold; Fold change [12]: -56.1 fold; Fold change [13]: 0 fold; Kd [14]: 350 nM; Kd [15]: 28 nM; Kd [16]: 32 nM; Kd [17]: 856 nM; Ka [18]: 1.1e+06 M⁻¹; Kd [18]: 880 nM
								HyHEL10 Fab S52R	fold lower affinity against unmutated HyHEL10 [19]: > 100 fold
0	0			0	0	84	40	HyHEL10 Fab, wild-type	Ka [20]: 1.6e+07 M⁻¹; Ka [21]: 2.5e+07 M⁻¹; Kd [21]: 40 nM; Ka [18]: 1.2e+07 M⁻¹; Kd [18]: 84 nM
		3e+07	34	1.2	-0.1		33	HyHEL10 Fab S52T	
		9.7e+08	1		-2.2		1	HyHEL10 Fab I29F/Y53F	
3.5	-0.7	1.99e+09	0.5	80	-2.6	24	0.5	HyHEL10 Fab S52T/Y53F/Y58F	fold increase of affinity against unmutated HyHEL10 [22]: 4 fold; fold lower affinity than the I29F-S52T-Y53F trio [23]: 3 fold
				4.8	-0.9		8	HyHEL10 Fab Y53F	Ka [24]: 1.2e+08 M⁻¹; Kd [24]: 8.4 nM
								HyHEL10 Fab S52R/Y53F	fold lower affinity against unmutated HyHEL10 [19]: > 100 fold
		9.4e+07	11		-0.8		11	HyHEL10 Fab Y58F	
-1.8	0.3	2.8e+08	3.6	1.1	-1.4	152	3.6	HyHEL10 Fab S52T/Y53F	
		3.8e+08	2.6				3	HyHEL10 Fab S52T/Y58F	
				23.8	-1.9		2	HyHEL10 Fab I29F/S52T/Y58F	
